In article PMC9800333, “Determinants of receptor tyrosine phosphatase homophilic adhesion: Structural comparison of PTPRK and PTPRM extracellular domains” (The Journal of Biological Chemistry, 2022):

Biological target: the molecule itself
Test: SEC-MALS; pH 8: 100 ul at 1 mg/ml on Superdex 200 Increase 10/300 GL in 100 mM Tris-HCl, pH 8, 250 mM NaCl; protein conjugate analysis for glycans; dimer to monomers

Protein | stoichiometry N | binding result
full-length PTPRK extracellular domain (domain or fragment, human, UniProt Q15262-3 28-752, looked up, native N-linked glycans (no deglycosylation), human PTPRK, full extracellular domain (MAM, Ig, FN1-4), residues 28-752; numbers count on: UniProt Q15262-3; Cloned into pHLSec (AgeI/KpnI) in frame with the vector's N-terminal secretion signal; The C-terminal His6 tag was included in the SAXS models; also called PTPRK-ECD; PTPRK full ECD; not shown: Lys-His6, C-terminal, kept) QGQFSAGGCTFDDGPGACDYHQDLYDDFEWVHVSAQEPHYLPPEMPQGSYMIVDSSDHDPGEKARLQLPTMKENDTHCIDFSYLLYSQKGLNPGTLNILVRVNKGPLANPIWNVTGFTGRDWLRAELAVSTFWPNEYQVIFEAEVSGGRSGYIAIDDIQVLSYPCDKSPHFLRLGDVEVNAGQNATFQCIATGRDAVHNKLWLQRRNGEDIPVAQTKNINHRRFAASFRLQEVTKTDQDLYRCVTQSERGSGVSNFAQLIVREPPRPIAPPQLLGVGPTYLLIQLNANSIIGDGPIILKEVEYRMTSGSWTETHAVNAPTYKLWHLDPDTEYEIRVLLTRPGEGGTGLPGPPLITRTKCAEPMRTPKTLKIAEIQARRIAVDWESLGYNITRCHTFNVTICYHYFRGHNESKADCLDMDPKAPQHVVNHLPPYTNVSLKMILTNPEGRKESEETIIQTDEDVPGPVPVKSLQGTSFENKIFLNWKEPLDPNGIITQYEISYSSIRSFDPAVPVAGPPQTVSNLWNSTHHVFMHLHPGTTYQFFIRASTVKGFGPATAINVTTNISAPTLPDYEGVDASLNETATTITVLLRPAQAKGAPISAYQIVVEELHPHRTKREAGAMECYQVPVTYQNAMSGGAPYYFAAELPPGNLPEPAPFTVGDNRTYQGFWNPPLAPRKGYNIYFQAMSSVEKETKTQCVRIATKAAATEEPEVIPDPAKQTDRVV | 2 | –
PTPRK MAM-Ig-FN1 domains (domain or fragment, human, UniProt Q15262-3 28-385, looked up, native N-linked glycans (no deglycosylation); glycans seen in the structure at N101, N140 and N211, human PTPRK, N-terminal MAM, Ig and first FN domains, residues 28-385; numbers count on: UniProt Q15262-3; Cloned into pHLSec (AgeI/KpnI) in frame with the vector's N-terminal secretion signal; also called PTPRK-MIFN1; MIFN1) QGQFSAGGCTFDDGPGACDYHQDLYDDFEWVHVSAQEPHYLPPEMPQGSYMIVDSSDHDPGEKARLQLPTMKENDTHCIDFSYLLYSQKGLNPGTLNILVRVNKGPLANPIWNVTGFTGRDWLRAELAVSTFWPNEYQVIFEAEVSGGRSGYIAIDDIQVLSYPCDKSPHFLRLGDVEVNAGQNATFQCIATGRDAVHNKLWLQRRNGEDIPVAQTKNINHRRFAASFRLQEVTKTDQDLYRCVTQSERGSGVSNFAQLIVREPPRPIAPPQLLGVGPTYLLIQLNANSIIGDGPIILKEVEYRMTSGSWTETHAVNAPTYKLWHLDPDTEYEIRVLLTRPGEGGTGLPGPPLITRTK | 2 | –
PTPRK-MIFN1.W351G (domain or fragment, human, UniProt Q15262-3 28-385, looked up, human PTPRK, MAM-Ig-FN1 domains, residues 28-385, with W351G; numbers count on: UniProt Q15262-3; PDB 8A1F is the wild-type parent; also called W315G mutant form of PTPRK-MIFN1; source: expressed and purified (as PTPRK-MIFN1: human embryonic kidney-293F cells, nickel-nitrilotriacetic acid agarose, SEC)) QGQFSAGGCTFDDGPGACDYHQDLYDDFEWVHVSAQEPHYLPPEMPQGSYMIVDSSDHDPGEKARLQLPTMKENDTHCIDFSYLLYSQKGLNPGTLNILVRVNKGPLANPIWNVTGFTGRDWLRAELAVSTFWPNEYQVIFEAEVSGGRSGYIAIDDIQVLSYPCDKSPHFLRLGDVEVNAGQNATFQCIATGRDAVHNKLWLQRRNGEDIPVAQTKNINHRRFAASFRLQEVTKTDQDLYRCVTQSERGSGVSNFAQLIVREPPRPIAPPQLLGVGPTYLLIQLNANSIIGDGPIILKEVEYRMTSGSWTETHAVNAPTYKLGHLDPDTEYEIRVLLTRPGEGGTGLPGPPLITRTK | – | binds
